This is an account of results in article PMC12292289, “Identification of a Novel Antibacterial Function of Mammalian Calreticulin” (Biomolecules, 2025).

Series [1] addresses recombinant goat calreticulin (Capra hircus (goat)). Kind of series: SEC; SEC-HPLC of the purified recombinant protein; retention time compared with that of standards (Figure S1).
Series [2] deals with the molecule itself. The series is described as above.

As usually defined, the stoichiometry N is the number of molecules, sites or subunits per partner or assembly. With “recombinant goat calreticulin (natural protein)”, in series [1], the stoichiometry N came out at 2.

B1: recombinant human calreticulin (natural protein, UniProt P27797 18-417, looked up)
chain: EPAVYFKEQFLDGDGWTSRWIESKHKSDFGKFVLSSGKFYGDEEKDKGLQTSQDARFYALSASFEPFSNKGQTLVVQFTVKHEQNIDCGGGYVKLFPNSLDQTDMHGDSEYNIMFGPDICGPGTKKVHVIFNYKGKNVLINKDIRCKDDEFTHLYTLIVRPDNTYEVKIDNSQVESGSLEDDWDFLPPKKIKDPDASKPEDWDERAKIDDPTDSKPEDWDKPEHIPDPDAKKPEDWDEEMDGEWEPPVIQNPEYKGEWKPRQIDNPDYKGTWIHPEIDNPEYSPDPSIYAYDNFGVLGLDLWQVKSGTIFDNFLITNDEAYAEEFGNETWGVTKAAEKQMKDKQDEEQRLKEEEEDKKRKEEEEAEDKEDDEDKDEDEEDEEDKEEDEEEDVPGQAKDEL
notes: calreticulin, human; bought recombinant protein (Sino Biological, P27797); P27797 is printed where the reagent list gives catalogue numbers; also called recombinant human calreticulin expressed in HEK293 cells; source: bought: Sino Biological; expressed in HEK293 cells
Consider B1, for which the “stoichiometry N” value in series [2] came to 2.
